Source: patent US6855815 (Amgen, dated 2005)

Assays:
[1] = molecular target: T1, c-IAP1 N-terminally tagged with a FLAG epitope peptide (Homo sapiens (Human), UniProt Q13490 1-618); experiment: co-immunoprecipitation from transfected 293 cells (anti-TNF-R2 IP, anti-FLAG Western)
T1 construct: Expressed in human embryonic 293 cells from a pRK vector (CMV promoter); also called FLAG-tagged c-IAP1
Method: A transfection based co-immunoprecipitation assay was used to investigate how c-IAP1 interacts with the complex of TNF-R2 and TRAFs. In this system c-IAP1 was N-terminally tagged with a FLAG epitope peptide and expressed in human embryonic 293 cells under the control of a constitutive CMV promotor (pRK vector). The c-IAP1 expression vector was transiently co-transfected into 293 cells with expression vectors for TNF-R2 and TRAFs. After 24–36 h, the cells were harvested and extracts immunoprecipitated with anti-TNF-R2 antibodies, followed by Western analysis with anti-FLAG antibodies. […] Thus, c-IAP1 is a component of the TNF-R2 (CD40)/TRAF signaling complex.

[2] = molecular target: T2, human cellular inhibitor of apoptosis protein 1 (c-IAP1) (human, UniProt Q13490 1-618); experiment: yeast two-hybrid
T2 construct: Tested in a yeast two-hybrid system; also called h c-IAP1
T2 sequence (Q13490 whole entry): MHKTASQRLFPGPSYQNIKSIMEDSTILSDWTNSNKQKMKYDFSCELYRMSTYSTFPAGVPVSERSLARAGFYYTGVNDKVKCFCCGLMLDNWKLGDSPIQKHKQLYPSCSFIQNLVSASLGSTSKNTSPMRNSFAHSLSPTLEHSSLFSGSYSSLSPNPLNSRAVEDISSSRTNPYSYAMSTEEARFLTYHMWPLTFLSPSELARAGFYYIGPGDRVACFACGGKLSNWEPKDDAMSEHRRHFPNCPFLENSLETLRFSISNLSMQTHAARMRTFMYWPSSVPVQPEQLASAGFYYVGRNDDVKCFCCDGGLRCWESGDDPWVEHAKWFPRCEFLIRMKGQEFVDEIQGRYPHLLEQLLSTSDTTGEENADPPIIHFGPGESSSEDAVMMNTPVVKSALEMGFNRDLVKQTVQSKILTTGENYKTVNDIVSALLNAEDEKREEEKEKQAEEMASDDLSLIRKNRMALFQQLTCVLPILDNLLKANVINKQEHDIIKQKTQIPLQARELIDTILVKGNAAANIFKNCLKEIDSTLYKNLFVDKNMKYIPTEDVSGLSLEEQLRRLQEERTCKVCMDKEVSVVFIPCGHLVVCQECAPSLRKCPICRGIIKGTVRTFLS
Source text: (§1) A yeast two-hybrid system was used to determine how c-IAP1 and -2 interact with TNF-R2 and/or TRAFs. The following results were obtained indistinguishably for c-IAP1 and c-IAP2. […] However, a direct interaction could be detected between c-IAP1 and TRAF2. […] Consistently, c-IAP1 also interacted with TRAF1. […] Thus c-IAP1 and TNF-R2 bind to non-overlapping docking sites within the TRAF domain of TRAF2. […] Similarly, combinations of two of the three BIR motifs e.g. amino acid residues 46–99 and 204–249 of c-IAP1 and 29–82 and 189–234 of c-IAP2, separated by IAP1 derived intervening sequences of varying lengths are assayed for TRAF1 and TRAF2 binding. […] The RING finger domain of c-IAP1/2 (amino acids 571–618 of c-IAP1 and 557–604 of c-IAP2) is not required for interaction with TRAFs, but rather mediates subsequent steps in the c-IAP1/2 signaling cascade. Similarly, a variety of c-IAP1 derived N-terminal leader sequences fused to the c-IAP1 RING finger domain are used to assay signal transduction mediation.

[3] = molecular target: T3, human cellular inhibitor of apoptosis protein 2 (c-IAP2) (human, UniProt Q13489 1-604); experiment: yeast two-hybrid
T3 construct: The two-hybrid fusion partners are not described; also called h c-IAP2
T3 sequence (Q13489 whole entry, the tested form may be a part): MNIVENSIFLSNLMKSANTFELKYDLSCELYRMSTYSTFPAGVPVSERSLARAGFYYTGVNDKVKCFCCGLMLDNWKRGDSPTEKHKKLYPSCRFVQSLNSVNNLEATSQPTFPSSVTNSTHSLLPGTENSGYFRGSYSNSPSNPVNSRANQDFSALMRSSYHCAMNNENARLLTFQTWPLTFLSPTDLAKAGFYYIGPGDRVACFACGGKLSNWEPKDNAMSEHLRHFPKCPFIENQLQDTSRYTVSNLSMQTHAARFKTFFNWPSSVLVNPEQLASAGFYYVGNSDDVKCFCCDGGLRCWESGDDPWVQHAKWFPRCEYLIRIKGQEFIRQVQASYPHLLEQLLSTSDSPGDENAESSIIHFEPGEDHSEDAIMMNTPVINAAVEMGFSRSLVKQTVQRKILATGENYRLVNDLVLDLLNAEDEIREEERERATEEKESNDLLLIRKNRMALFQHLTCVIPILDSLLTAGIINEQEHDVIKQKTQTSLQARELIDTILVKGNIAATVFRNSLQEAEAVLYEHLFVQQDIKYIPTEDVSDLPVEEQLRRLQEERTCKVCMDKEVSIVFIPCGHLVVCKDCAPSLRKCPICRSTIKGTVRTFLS
Source text: as §1

Measured: binding result

T1 sequence (Q13490 whole entry): as the sequence (Q13490 whole entry) above

B1: TNF-R2 (receptor, UniProt P20333 288-461, looked up)
chain: KKKPLCLQREAKVPHLPADKARGTQGPEQQHLLITAPSSSSSSLESSASALDRRAPTRNQPQAPGVEASGAGEARASTGSSDSSPGGHGTQVNVTCIVNVCSSSDHSSQCSSQASSTMGDTDSSPSESPKDEQVPFSKEECAFRSQLETPETLLGSTEEKPLPLGVPDAGMKPS
notes: In the co-immunoprecipitation it was expressed from a vector in 293 cells
no binding: all assays above
